The source of these data is US20200148732A1 (UNIVERSITY OF COPENHAGEN, published 2020).

One test deals with T1, GFP-TONSL N571A (Homo sapiens, UniProt Q96HA7 1-1378).
T1 construct: also called TONSL N571A / GFP; not shown: N-terminal GFP tag
T1 sequence: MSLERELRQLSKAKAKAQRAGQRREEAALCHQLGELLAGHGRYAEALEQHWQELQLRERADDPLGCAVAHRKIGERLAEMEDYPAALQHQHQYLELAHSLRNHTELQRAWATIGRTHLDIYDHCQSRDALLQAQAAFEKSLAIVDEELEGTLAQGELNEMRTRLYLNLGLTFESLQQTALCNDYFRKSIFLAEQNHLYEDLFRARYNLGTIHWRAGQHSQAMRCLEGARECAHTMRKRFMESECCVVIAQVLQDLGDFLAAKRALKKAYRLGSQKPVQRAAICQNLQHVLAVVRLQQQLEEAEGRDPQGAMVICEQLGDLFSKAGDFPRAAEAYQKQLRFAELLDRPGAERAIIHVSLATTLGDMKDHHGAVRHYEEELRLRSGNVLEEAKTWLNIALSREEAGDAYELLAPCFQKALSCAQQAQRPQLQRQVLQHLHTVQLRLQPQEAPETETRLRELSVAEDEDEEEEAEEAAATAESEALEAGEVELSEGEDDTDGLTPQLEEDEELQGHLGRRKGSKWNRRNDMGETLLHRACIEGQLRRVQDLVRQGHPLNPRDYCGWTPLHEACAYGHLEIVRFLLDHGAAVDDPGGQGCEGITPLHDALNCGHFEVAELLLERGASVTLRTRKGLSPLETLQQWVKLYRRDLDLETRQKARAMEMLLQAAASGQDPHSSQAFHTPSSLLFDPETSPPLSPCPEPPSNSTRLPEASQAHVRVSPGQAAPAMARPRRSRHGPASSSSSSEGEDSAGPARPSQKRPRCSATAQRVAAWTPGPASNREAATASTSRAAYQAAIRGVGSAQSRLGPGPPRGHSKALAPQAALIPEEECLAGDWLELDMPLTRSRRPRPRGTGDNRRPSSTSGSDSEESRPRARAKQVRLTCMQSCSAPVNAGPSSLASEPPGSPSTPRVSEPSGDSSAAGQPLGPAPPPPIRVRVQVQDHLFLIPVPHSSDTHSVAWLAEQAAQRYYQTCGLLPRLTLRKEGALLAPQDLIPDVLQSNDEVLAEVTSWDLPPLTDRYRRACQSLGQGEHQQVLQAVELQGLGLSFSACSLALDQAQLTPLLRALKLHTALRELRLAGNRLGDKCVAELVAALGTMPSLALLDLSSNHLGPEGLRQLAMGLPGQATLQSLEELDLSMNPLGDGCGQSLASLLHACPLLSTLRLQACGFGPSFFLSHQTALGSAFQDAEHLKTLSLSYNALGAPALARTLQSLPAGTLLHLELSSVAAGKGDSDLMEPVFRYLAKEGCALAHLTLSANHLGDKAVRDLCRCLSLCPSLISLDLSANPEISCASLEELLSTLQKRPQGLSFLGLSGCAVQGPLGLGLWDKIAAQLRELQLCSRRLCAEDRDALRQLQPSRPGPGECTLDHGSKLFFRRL
Description: GFP immunoprecipitation of GFP-TONSL from transfected HeLa S3 cells, western blot (co-IP; association may be indirect). Background: In western blotting, separated proteins are transferred to a membrane and probed.

Another test concerns the target T2, GFP-TONSL D559A (Homo sapiens, UniProt Q96HA7 1-1378).
T2 construct: also called TONSL D559A / GFP; not shown: N-terminal GFP tag
T2 sequence: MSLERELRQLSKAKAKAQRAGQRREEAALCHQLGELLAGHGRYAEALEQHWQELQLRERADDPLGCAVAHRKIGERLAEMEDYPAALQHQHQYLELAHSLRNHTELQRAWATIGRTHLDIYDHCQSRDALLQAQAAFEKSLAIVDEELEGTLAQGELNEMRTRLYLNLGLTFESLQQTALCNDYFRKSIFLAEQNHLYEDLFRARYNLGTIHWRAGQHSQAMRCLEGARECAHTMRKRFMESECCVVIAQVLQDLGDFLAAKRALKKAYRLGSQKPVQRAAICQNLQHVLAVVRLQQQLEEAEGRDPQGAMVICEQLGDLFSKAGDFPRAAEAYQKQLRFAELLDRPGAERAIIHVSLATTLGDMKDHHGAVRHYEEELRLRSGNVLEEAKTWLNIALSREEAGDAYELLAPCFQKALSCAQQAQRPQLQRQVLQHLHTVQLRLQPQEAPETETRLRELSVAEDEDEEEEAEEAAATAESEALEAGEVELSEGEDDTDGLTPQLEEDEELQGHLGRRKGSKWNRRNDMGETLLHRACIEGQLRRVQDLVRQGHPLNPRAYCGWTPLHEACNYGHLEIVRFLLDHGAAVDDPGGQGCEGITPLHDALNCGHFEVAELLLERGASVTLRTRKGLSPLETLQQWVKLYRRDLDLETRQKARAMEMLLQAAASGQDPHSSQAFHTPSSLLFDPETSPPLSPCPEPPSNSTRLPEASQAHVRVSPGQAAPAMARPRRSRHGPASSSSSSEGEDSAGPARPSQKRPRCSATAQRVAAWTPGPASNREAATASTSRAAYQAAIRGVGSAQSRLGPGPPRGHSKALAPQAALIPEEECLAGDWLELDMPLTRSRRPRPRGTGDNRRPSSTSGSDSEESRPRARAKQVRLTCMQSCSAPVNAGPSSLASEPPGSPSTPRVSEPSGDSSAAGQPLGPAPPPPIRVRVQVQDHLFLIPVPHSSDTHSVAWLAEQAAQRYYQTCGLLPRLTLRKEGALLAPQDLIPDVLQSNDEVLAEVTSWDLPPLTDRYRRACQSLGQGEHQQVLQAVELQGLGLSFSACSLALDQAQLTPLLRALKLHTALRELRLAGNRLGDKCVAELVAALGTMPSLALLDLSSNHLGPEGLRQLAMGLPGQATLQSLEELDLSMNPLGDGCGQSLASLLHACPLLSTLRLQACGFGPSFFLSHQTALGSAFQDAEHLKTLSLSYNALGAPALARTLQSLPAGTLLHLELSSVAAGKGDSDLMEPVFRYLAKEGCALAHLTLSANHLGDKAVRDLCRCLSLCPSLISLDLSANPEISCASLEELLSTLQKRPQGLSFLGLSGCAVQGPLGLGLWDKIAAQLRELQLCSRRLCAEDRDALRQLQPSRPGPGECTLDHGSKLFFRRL
The description is as above.

B1: MMS22L (endogenous, in cell extracts) (other, UniProt Q6ZRQ5 1-1243, looked up)
chain: MENCSAASTFLTDSLELELGTEWCKPPYFSCAVDNRGGGKHFSGESYLCSGALKRLILNLDPLPTNFEEDTLEIFGIQWVTETALVNSSRELFHLFRQQLYNLETLLQSSCDFGKVSTLHCKADNIRQQCVLFLHYVKVFIFRYLKVQNAESHVPVHPYEALEAQLPSVLIDELHGLLLYIGHLSELPSVNIGAFVNQNQIKLFPPSWHLLHLHLDIHWLVLEILYMLGEKLKQVVYGHQFMNLASDNLTNISLFEEHCETLLCDLISLSLNRYDKVRSSESLMSDQCPCLCIKELWVLLIHLLDHRSKWFVSESFWNWLNKLLKTLLEKSSDRRRSSMPVIQSRDPLGFSWWIITHVASFYKFDRHGVPDEMRKVESNWNFVEELLKKSISVQGVILEEQLRMYLHCCLTLCDFWEPNIAIVTILWEYYSKNLNSSFSISWLPFKGLANTMKSPLSMLEMVKTCCCDKQDQELYKSSSSYTIFLCILAKVVKKAMKSNGPHPWKQVKGRIYSKFHQKRMEELTEVGLQNFFSLFLLLAAVAEVEDVASHVLDLLNFLKPAFVTSQRALIWKGHMAFLLMYAQKNLDIGVLAEKFSCAFREKAKEFLVSKNEEMVQRQTIWTLLSIYIDGVQEVFETSYCLYPSHEKLLNDGFSMLLRACRESELRTVLSFLQAVLARIRSMHQQLCQELQRDNVDLFVQSSLSAKERHLAAVASALWRHFFSFLKSQRMSQVVPFSQLADAAADFTLLAMDMPSTAPSDFQPQPVISIIQLFGWDDIICPQVVARYLSHVLQNSTLCEALSHSGYVSFQALTVRSWIRCVLQMYIKNLSGPDDLLIDKNLEEAVEKEYMKQLVKLTRLLFNLSEVKSIFSKAQVEYLSISEDPKKALVRFFEAVGVTYGNVQTLSDKSAMVTKSLEYLGEVLKYIKPYLGKKVFSAGLQLTYGMMGILVKSWAQIFATSKAQKLLFRIIDCLLLPHAVLQQEKELPAPMLSAIQKSLPLYLQGMCIVCCQSQNPNAYLNQLLGNVIEQYIGRFLPASPYVSDLGQHPVLLALRNTATIPPISSLKKCIVQVIRKSYLEYKGSSPPPRLASILAFILQLFKETNTDIYEVELLLPGILKCLVLVSEPQVKRLATENLQYMVKACQVGSEEEPSSQLTSVFRQFIQDYGMRYYYQVYSILETVATLDQQVVIHLISTLTQSLKDSEQKWGLGRNIAQREAYSKLLSHLGQMGQDEMQRLENDNT
On to B1, for which the binding result with GFP-TONSL N571A and with GFP-TONSL D559A was “binds” in each case.
